We go through 1 molecule from publication doi:10.1101/2023.03.10.532002.

“And” between values parts separate entries of the source, which are not always exact repeats. Equal values may be shown once.

As usually defined, the stoichiometry N is a count of units in the complex or per binding partner.

Details in all cases: remark: other sources report otherwise
For assay [1], the target named is T1, human arachidonate 12S-Lipoxygenase (12-LOX) (human), P18054.
T1 chain: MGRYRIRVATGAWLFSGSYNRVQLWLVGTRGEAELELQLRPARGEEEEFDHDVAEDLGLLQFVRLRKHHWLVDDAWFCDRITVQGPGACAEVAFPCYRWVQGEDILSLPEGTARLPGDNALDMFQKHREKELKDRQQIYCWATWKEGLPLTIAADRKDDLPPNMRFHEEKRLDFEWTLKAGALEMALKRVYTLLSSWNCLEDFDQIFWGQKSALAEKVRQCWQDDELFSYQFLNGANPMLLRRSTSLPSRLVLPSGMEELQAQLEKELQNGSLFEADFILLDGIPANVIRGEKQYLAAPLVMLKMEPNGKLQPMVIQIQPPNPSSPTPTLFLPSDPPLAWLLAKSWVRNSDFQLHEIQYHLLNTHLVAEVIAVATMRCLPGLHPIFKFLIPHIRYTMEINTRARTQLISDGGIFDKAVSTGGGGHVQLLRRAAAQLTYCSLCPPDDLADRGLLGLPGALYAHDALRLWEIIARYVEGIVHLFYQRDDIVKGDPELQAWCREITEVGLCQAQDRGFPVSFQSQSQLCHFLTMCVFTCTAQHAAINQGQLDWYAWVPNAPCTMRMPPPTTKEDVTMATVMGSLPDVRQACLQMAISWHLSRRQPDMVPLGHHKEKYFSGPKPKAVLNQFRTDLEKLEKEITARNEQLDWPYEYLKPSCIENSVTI
Description: SEC.

Assay [2] has as its target T1, human arachidonate 12S-Lipoxygenase …. Description: cryo-EM structure.
The target is the same in assay [3]. The experiment in a line: cryo-EM structure.
For assay [4] the target is unchanged. The experiment in a line: cryo-EM structure.

B1: human arachidonate 12S-Lipoxygenase (12-LOX), P18054 1-663 (enzyme)
chain: MGRYRIRVATGAWLFSGSYNRVQLWLVGTRGEAELELQLRPARGEEEEFDHDVAEDLGLLQFVRLRKHHWLVDDAWFCDRITVQGPGACAEVAFPCYRWVQGEDILSLPEGTARLPGDNALDMFQKHREKELKDRQQIYCWATWKEGLPLTIAADRKDDLPPNMRFHEEKRLDFEWTLKAGALEMALKRVYTLLSSWNCLEDFDQIFWGQKSALAEKVRQCWQDDELFSYQFLNGANPMLLRRSTSLPSRLVLPSGMEELQAQLEKELQNGSLFEADFILLDGIPANVIRGEKQYLAAPLVMLKMEPNGKLQPMVIQIQPPNPSSPTPTLFLPSDPPLAWLLAKSWVRNSDFQLHEIQYHLLNTHLVAEVIAVATMRCLPGLHPIFKFLIPHIRYTMEINTRARTQLISDGGIFDKAVSTGGGGHVQLLRRAAAQLTYCSLCPPDDLADRGLLGLPGALYAHDALRLWEIIARYVEGIVHLFYQRDDIVKGDPELQAWCREITEVGLCQAQDRGFPVSFQSQSQLCHFLTMCVFTCTAQHAAINQGQLDWYAWVPNAPCTMRMPPPTTKEDVTMATVMGSLPDVRQACLQMAISWHLSRRQPDMVPLGHHKEKYFSGPKPKAVLNQFRTDLEKLEKEITARNEQLDWPYEYLKPSCIENSVTI
In the case of B1, the stoichiometry N in assay [1] was 2 and 4; in assay [2], 2 and 4 and 6; in assay [3], 4; in assay [4] it was 4.
